assay: label from the status in PepcDB records

Row | Sequence | protein production
1 | MSDHPFSIQANLYLQLRHFIRLGMSKAEAIKLITYNNAKILGIEDKLGSLEKGKWASLVVWNGDPFNLENYPTHVFAEGELIHEANLLEHHHHHH | failed
2 | MSDISKLIGAIVGSDDPVIIEFVLNIINKSGNLQEFIRNIQKLDAGISYEDSIKMYNAFLGKQEEEKVRNKVKSSPLSQKINQVLKDDVNLDDPVVTEFVLSILNKSKSITEFQEQLNLMQSGLDNETIFKIYQIASPPVMKEEVSVLPSTKIPAKIEAKIEEEVQKIESLDPSPVLHKVYEGKVRNITTFGCFVQIFGTRMKNCDGLVHISEMSDQRTLDPHDVVRQGQHIFVEVIKIQNNGKISLSMKNIDQHSGEIRKRNTESVEDRGRSNDAHTSRNMKNKIKRRALTSPERWEIRQLIASGAASIDDYPELKDEIPINTSYLTAKRDDGSIVNGNTEKVDSKLEEQQRDETDEIDVELNTDDGPKFLKDQQVKGAKKYEMPKITKVPRGFMNRSAINGSNAIRDHREEKLRKKREIEQQIRKQQSFDDPTKNKKDSRNEIQMLKNQLIVTEWEKNRMNESISYGKRTSLPISAQRQTLPVYAMRSELIQAVRDNQFLVIVGETGSGKTTQITQYLDEEGFSNYGMIGCTQPRRVAAVSVAKRVAEEVGCKVGHDVGYTIRFEDVTGPDTRIKYMTDGMLQREALLDPEMSKYSVIMLDEAHERTVATDVLFALLKKAAIKRPELKVIVTSATLNSAKFSEYFLNCPIINIPGKTFPVEVLYSQTPQMDYIEAALDCVIDIHINEGPGDILVFLTGQEEIDSCCEILYDRVKTLGDSIGELLILPVYSALPSEIQSKIFEPTPKGSRKVVFATNIAETSITIDGIYYVVDPGFAKINIYNARAGIEQLIVSPISQAQANQRKGRAGRTGPGKCYRLYTESAFYNEMLENTVPEIQRQNLSHTILMLKAMGINDLLKFDFMDPPPKNLMLNALTELYHLQSLDDEGKLTNLGKEMSLFPMDPTLSRSLLSSVDNQCSDEIVTIISMLSVQNVFYRPKDRQLEADSKKAKFHHPYGDHLTLLNVYTRWQQANYSEQYCKTNFLHFRHLKRARDVKSQISMIFKKIGLKLISCHSDPDLIRKTFVSGFFMNAAKRDSQVGYKTINGGTEVGIHPSSSLYGKEYEYVMYHSIVLTSREYMSQVTSIEPQWLLEVAPHFYKAGDAESQSRKKAKIIPLHNKFAKDQNSWRLSSIRQSRERALGIKR | failed
3 | MSDKFNQFINRVLSHEGGYANHPKDPGGETNWGITKRTAQANGYNGSMRAMTREQAISIYRKAFWERYRADQMPEAVAFQFFDACVNHGYGNAARMLQRAAGVPDDGVIGAVSLKAINSLPENDLLLRFNAERLVFYTKLGTFTSFGKGWVRRVAQNLIHASADNTD | not failed
4 | MSDKLFSIVTISFNQAQFLREAVESVLAQKGGDIEYIVVDPGSTDGSREILAEYRSAIDHLILEADHGPGDGLNKGFARANGRYGYFLNSDDFLLPGAIDIMRTLWQRHKNTDVLLCGAWMVDENRRPQRELRPSPVTLEKLLDGEAKIVQQGMSFRMDLFRKVGGFNVGNRTCWDYELLCDFLAAGAAVTQSEARLAAFRIHSASISGGIGGELATKRYLADLDSVYERLTGQKKKPEQRRRAVRLSKRLGSPSHVLLRMRELLAPWTLELRWQADHERKSRRLEHHHHHH | failed
5 | MSDKPTIEQLLNNVSIESLNDMQEDSLAANAKASDVILLSPTGSGKTLGFLLPVFQQLSVSSNSIQALVLVPSRELALQIESVFKSLKTGFKVTCCYGGHPMDVEENNLAQSPALLIGTPGRIVDHINRRNINLDDVKTLVLDEFDKSLEMGFQEDMAIIIGRLTGIKKRILTSATQAIKIPDFTGMQSPVTLNYITGQASGLSVKTVLSDTKDKFDTLLRLLCQIGNESVIVFCNQRDEVENVCAYLTEHGIINNNFHGGLEQRYRESTLTKFRNGSTNVLVTTDLAARGLDIPDVKHVIHYQMPHKIDAFTHRNGRTARMGSTGNAYMLLHKDVLLPDYITSKPDILKLSDQKVKPLLPQWETLFISAGKKDKINKIDIVGFLSKKGLLEKDELGLIEVKDQFAYAAVKRNKVESVIKLVKEEKIKGRKVKIEVARETPKFEAE | failed
6 | MSDKQRVREQKHAWIYLFNLGFYILPMVLFPYQVWEIAVMVAALLVFIGLYYCCYSVPRQQMLWPILGMYIIACAVTPLNPGSIALFSYAGFFVGFAYNWRVALAAVAGIILTLATFHFGPGTSWDLFLPYGIVIVGTVSIFGRVERLRQQHAEEQERDAEEIERLATSVERERIARDLHDILGHTLSSIILKSDLAKAQLSKQRYDEASEQLVELSEIARESLSQVRQSVSGYKHGGLQLELRRLEQRLTDGGFSTRITGTPPIIDERRETSLVLAITELVTNIIRHSNGQQCLIHFDETANTYCIKVVDNGRCHDVSVGNGLSGVELRIQELGGSMSISTNKGCEVALFLPKLAEQQP | failed
7 | MSDKRDARFYQEVLDICLTAGRLMIEGGSEMYRVEDTMLRIARNADINDPRVFATPTCVFMSLDGGKLSQMKQIRDRNINLELVDRVNELSREFATKKIDLSELKNRIIEVANAPSFPMWMQIIGAAVLSATLMVLFMDDYDWVDFPGAALVGAIGFWAYYEFKKYTKVRFLSELIAAMIMGVLALGLNYLYPKMIIDNILIGALMTLVPGLAMTNALRDLFMGDLLSGIVRMCEAILSALALGGGVGLVLKFVGG | failed
8 | MSDLGDFADHGRDDDERGGDDDPAPADDDFDRPTLEATGSDDGLGALAVSEGLRIHEDGQETALKAYVTAGNRAAVRLGTYLVAPYPGGETLFCKITGLEYVQAFESDDATEIHARRAMRSDGVDEADYKFLAELDPVAVLSDEGDDITRRMPDRVPKPETVVRAADDAAEIKAGLKIPADGVFLGHLSVGGEKVRTAADPPTIDYRVKDGYEAGDPLVFRHTLIAGGTGSGKTHAAKNVLRQYLHEDRRYPVDSGGPERRMAVVQFDPQDEYAQMHDDNPDADASDRRQWETQGLAYGGHDDTVAFVPTVGSASYAADHHAAEQVAFTVPFSMVRDNPWLVASSGLNDNQYGALHLLLDRFFGQYGESGTYREFCAFLDDPALKEELDESGRVHEATYEAVLRRVNGMPNGLFDQDARSITALVEDREFVQPGRLSVVPTYHISNSRAAETVVLAVSSLLVDQKLSNDPRYDAIKRTPLLVGMDEAHNFLSDADSVQARKVVGKFTEAAKQGRKERLGLFLITQDPQDIAGPVFKQVNTTVVLNLGDEDAIQAVNIPATLQSKVPYMNTGQMVVYSPDNSEPVEVQGLATCVTRHGRD | failed
9 | MSDLINIQKKLLPDVLMIMQKRYQILRSIYFSEPVGRRTLAGMLGMSERVLRGEVEFLKAQGLVEIASSGMTVTKEGLVVFRDLENVMNQLSGLHSMEEQLAKKLQIKKCLVVQGDSDDTPWVREEMGRVAVEQLDMALTEKRNIVAVMGGSTMATVAEMMTTDFAKGRELLFVPGRGGIGEDLDNQANTICDKMATKTNTKHRVLYVPEQLGEEAYRSLLKEPAIQEGLRLVQSANAIILGIGDALAMAKRRHTGEDVLEKIIRRKAVGEAFGYYFDEQGEVVHKVPTFGLQFEDLAQIPHIIAVAGGTSKAKAIKSYMKSAPKNTILITDEGAAKSLLKGSNTLLK | failed
10 | MSDLQKLQRFSTCDISDGLLNVYNIPTGGYFPNLTAISPPQNSSIVGTAYTVLFAPIDDPRPAVNYIDSVPPNSILVLALEPHLQSQFHPFIKITQAMYGGLMSTRAQYLKSNGTVVFGRIRDVDEHRTLNHPVFAYGVGSCAPKAVVKAVGTNVQLKILTSDGVTQTICPGDYIAGDNNGIVRIPVQETDISKLVTYIEKSIEVDLLVSEDIKNGIPAKQAQNDRRSVLKKYI | not failed
11 | MSDQVPKPHRHHIWRITRRTLSKSWDDSIFSESAQAAFWSALSLPPLLLGMLGSLAYVAPLFGPDTLPAIEKSALSTAHSFFSPSVVNEIIEPTIGDITNNARGEVASLGFLISLWAGSSAISAFVDAVVEAHDQTPLRHPVRQRFFALFLYVVMLVFLVATAPVMVVGPRKVSEHIPESLANLLRYGYYPALILGLTVGVILLYRVALPVPLPTHRLVLGAVLAIAVFLIATLGLRVYLAWITRTGYTYGALATPIAFLLFAFFGGFAIMLGAELNAAVQEEWPAPATHAHRLGNWLKARIGVGTTTYSSTAQHSAVAAEPPS | failed
12 | MSDSIVGIPREDHQTFLYNPFTSQRYELPPLTIEDPHLKSVLRYGVLTGDPREDNTYACLVADSLHANLMAIGNTHPPSLHLYYVAKRNGEWDQNWSVTRIPTHNLPVVGSTIDSISPSADKISIIGWGHSFDFTFQSQDWNVTNINYTMEWNPFHGQSFDQIKHRLQIDPQTLDIIGTKTDRERVKNRIWFVINQIISHIDGVWVEVRA | failed

Reference: a protein production outcome set (Wang et al. 2014)
